Assay results as given in PMC5651189.

B1: Darpp-32 (dopamine- and cAMP-regulated phosphoprotein of 32 kDa) (natural protein)
chain: MDPKDRKKIQFSVPAPPSQLDPRQVEMIRRRRPTPAMLFRLSEHSSPEEEASPHQRASGEGHHLKSKRPNPCAYTPPSLKAVQRIAESHLQSISNLNENQASEEEDELGELRELGYPREEDEEEEEDDEEEEEEEDSQAEVLKVIRQSAGQKTTCGQGLEGPWERPPPLDESERDGGSEDQVEDPALSEPGEEPQRPSPSEPGT
B2: t-Darpp T39A phosphorylation mutant (natural protein)
chain: AYAPPSLKAVQRIAESHLQSISNLNENQASEEEDELGELRELGYPREEDEEEEEDDEEEEEEEDSQAEVLKVIRQSAGQKTTCGQGLEGPWERPPPLDESERDGGSEDQVEDPALSEPGEEPQRPSPSEPGT

Molecular target: PKA regulatory subunit RIα/β (human (endogenous in SK-Br-3)) (UniProt P10644)
Sequence (P10644 whole entry): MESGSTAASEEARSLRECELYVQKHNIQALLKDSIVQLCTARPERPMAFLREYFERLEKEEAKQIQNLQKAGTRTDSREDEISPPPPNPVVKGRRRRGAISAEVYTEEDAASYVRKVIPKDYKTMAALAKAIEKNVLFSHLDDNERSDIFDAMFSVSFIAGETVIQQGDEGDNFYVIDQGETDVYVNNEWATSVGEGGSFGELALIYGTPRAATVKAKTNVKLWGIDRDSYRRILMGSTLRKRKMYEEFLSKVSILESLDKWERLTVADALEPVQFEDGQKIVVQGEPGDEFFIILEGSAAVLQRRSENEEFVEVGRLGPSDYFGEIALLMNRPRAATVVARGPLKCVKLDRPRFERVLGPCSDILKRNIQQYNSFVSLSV
Assay: proximity ligation

| Binder | fold CICF in SK.dDp against SK.empty and SK.tDp cells [fold] | fold CICF in SK.tDp^T39A against SK.empty cells [fold] |
| --- | --- | --- |
| B1 | 4 | – |
| B2 | – | 3 |
